We go through six molecules from patent publication US10538782B2, “Plants having increased tolerance to herbicides” (BASF SE, priority 2015, dated 2020).

This test concerns Soybean cv Jake. Put plainly: Herbicide tolerance test of transgenic soybean events, roots of cuttings treated via nutrient solution with the herbicide. Type of test: in vivo. The following applies: transgenic plants expressing the TriA variant, herbicide treatment; 0% no injury, 100% complete death; herbicide and species not given. The protocol:
Binary vectors are generated as described in EXAMPLE 9. Soybean cv Jake are transformed as previously described by Siminszky et al., Phytochem Rev. 5:445-458 (2006). After regeneration, transformants are transplanted to soil in small pots, placed in growth chambers (16 hr day/8 hr night; 25° C. day/23° C. night; 65% relative humidity; 130-150 microE m-2 s-1) and subsequently tested for the presence of the T-DNA via Taqman analysis. After a few weeks, healthy, transgenic positive, single copy events are transplanted to larger pots and allowed to grow in the growth chamber. An optimal shoot for cutting is about 3-4 inches tall, with at least two nodes present. Each cutting is taken from the original transformant (mother plant) and dipped into rooting hormone powder (indole-3-butyric acid, IBA). The cutting is then placed in oasis wedges inside a bio-dome. The mother plant is taken to maturity in the greenhouse and harvested for seed. Wild type cuttings are also taken simultaneously to serve as negative controls. The cuttings are kept in the bio-dome for 5-7 days. 7-10 days after transfer to oasis wedges, the roots are treated via nutrient solution with the herbicide. Typical phytotox symptoms, like club shaped root, are evaluated 3-4 days after treatment. Less or no injury of transgenic plants compared to wildtype plants are interpreted as herbicide tolerance.

B1: L88AL92A: mutated TriA (SEQ ID NO: 2) in which position 88 is Ala and position 92 is Ala (protein)
chain: MQTLSIQHGTLVTMDQYRRVLGDSWVHVQDGRIVALGVHAESVPPPADRVIDARGKVVLPGFINAHTHVNQILLRGGPSHGRQLYDWAFNVAYPGQKAMRPEDVAVAVRLYCAEAVRSGITTINDNADSAIYPGNIEAAMAVYGEVGVRVVYARMFFDRMDGRIQGYVDALKARSPQVELCSIMEETAVAKDRITALSDQYHGTAGGRISVWPAPAITPAVTVEGMRWAQAFARDRAVMWTLHMAESDHDERLHWMSPAEYMECYGLLDERLQVAHCVYFDRKDVRLLHRHNVKVASQVVSNAYLGSGVAPVPEMVERGMAVGIGTDDGNCNDSVNMIGDMKFMAHIHRAVHRDADVLTPEKILEMATIDGARSLGMDHEIGSIETGKRADLILLDLRHPQTTPHHHLAATIVFQAYGNEVDTVLIDGNVVMENRRLSFLPPERELAFLEEAQSRATAILQRANMVANPAWRSL
modifications: Pseudomonas
With B1, the “Root injury [%]” value was 0%.

B2: N70N: TriA (melamine deaminase, SEQ ID NO: 2) with position 70 unchanged, apparently the wildtype reference (protein)
chain: MQTLSIQHGTLVTMDQYRRVLGDSWVHVQDGRIVALGVHAESVPPPADRVIDARGKVVLPGFINAHTHVNQILLRGGPSHGRQLYDWLFNVLYPGQKAMRPEDVAVAVRLYCAEAVRSGITTINDNADSAIYPGNIEAAMAVYGEVGVRVVYARMFFDRMDGRIQGYVDALKARSPQVELCSIMEETAVAKDRITALSDQYHGTAGGRISVWPAPAITPAVTVEGMRWAQAFARDRAVMWTLHMAESDHDERLHWMSPAEYMECYGLLDERLQVAHCVYFDRKDVRLLHRHNVKVASQVVSNAYLGSGVAPVPEMVERGMAVGIGTDDGNCNDSVNMIGDMKFMAHIHRAVHRDADVLTPEKILEMATIDGARSLGMDHEIGSIETGKRADLILLDLRHPQTTPHHHLAATIVFQAYGNEVDTVLIDGNVVMENRRLSFLPPERELAFLEEAQSRATAILQRANMVANPAWRSL
modifications: Pseudomonas
On to B2, for which the “Root injury [%]” value is on record as 80%.

B3: D128I: mutated TriA (SEQ ID NO: 2) in which position 128 is Ile (protein)
chain: MQTLSIQHGTLVTMDQYRRVLGDSWVHVQDGRIVALGVHAESVPPPADRVIDARGKVVLPGFINAHTHVNQILLRGGPSHGRQLYDWLFNVLYPGQKAMRPEDVAVAVRLYCAEAVRSGITTINDNAISAIYPGNIEAAMAVYGEVGVRVVYARMFFDRMDGRIQGYVDALKARSPQVELCSIMEETAVAKDRITALSDQYHGTAGGRISVWPAPAITPAVTVEGMRWAQAFARDRAVMWTLHMAESDHDERLHWMSPAEYMECYGLLDERLQVAHCVYFDRKDVRLLHRHNVKVASQVVSNAYLGSGVAPVPEMVERGMAVGIGTDDGNCNDSVNMIGDMKFMAHIHRAVHRDADVLTPEKILEMATIDGARSLGMDHEIGSIETGKRADLILLDLRHPQTTPHHHLAATIVFQAYGNEVDTVLIDGNVVMENRRLSFLPPERELAFLEEAQSRATAILQRANMVANPAWRSL
modifications: Pseudomonas
For the molecule B3, the “Root injury [%]” value is 0%.

B4: L92V: mutated TriA (SEQ ID NO: 2) in which position 92 is Val (protein)
chain: MQTLSIQHGTLVTMDQYRRVLGDSWVHVQDGRIVALGVHAESVPPPADRVIDARGKVVLPGFINAHTHVNQILLRGGPSHGRQLYDWLFNVVYPGQKAMRPEDVAVAVRLYCAEAVRSGITTINDNADSAIYPGNIEAAMAVYGEVGVRVVYARMFFDRMDGRIQGYVDALKARSPQVELCSIMEETAVAKDRITALSDQYHGTAGGRISVWPAPAITPAVTVEGMRWAQAFARDRAVMWTLHMAESDHDERLHWMSPAEYMECYGLLDERLQVAHCVYFDRKDVRLLHRHNVKVASQVVSNAYLGSGVAPVPEMVERGMAVGIGTDDGNCNDSVNMIGDMKFMAHIHRAVHRDADVLTPEKILEMATIDGARSLGMDHEIGSIETGKRADLILLDLRHPQTTPHHHLAATIVFQAYGNEVDTVLIDGNVVMENRRLSFLPPERELAFLEEAQSRATAILQRANMVANPAWRSL
modifications: Pseudomonas
In the case of B4, the “Root injury [%]” value was determined as 50%.

B5: N70A: mutated TriA (SEQ ID NO: 2) in which position 70 is Ala (protein)
chain: MQTLSIQHGTLVTMDQYRRVLGDSWVHVQDGRIVALGVHAESVPPPADRVIDARGKVVLPGFINAHTHVAQILLRGGPSHGRQLYDWLFNVLYPGQKAMRPEDVAVAVRLYCAEAVRSGITTINDNADSAIYPGNIEAAMAVYGEVGVRVVYARMFFDRMDGRIQGYVDALKARSPQVELCSIMEETAVAKDRITALSDQYHGTAGGRISVWPAPAITPAVTVEGMRWAQAFARDRAVMWTLHMAESDHDERLHWMSPAEYMECYGLLDERLQVAHCVYFDRKDVRLLHRHNVKVASQVVSNAYLGSGVAPVPEMVERGMAVGIGTDDGNCNDSVNMIGDMKFMAHIHRAVHRDADVLTPEKILEMATIDGARSLGMDHEIGSIETGKRADLILLDLRHPQTTPHHHLAATIVFQAYGNEVDTVLIDGNVVMENRRLSFLPPERELAFLEEAQSRATAILQRANMVANPAWRSL
modifications: Pseudomonas
Turning to B5, the “Root injury [%]” value was 0%.

B6: M155V: mutated TriA (SEQ ID NO: 2) in which position 155 is Val (protein)
chain: MQTLSIQHGTLVTMDQYRRVLGDSWVHVQDGRIVALGVHAESVPPPADRVIDARGKVVLPGFINAHTHVNQILLRGGPSHGRQLYDWLFNVLYPGQKAMRPEDVAVAVRLYCAEAVRSGITTINDNADSAIYPGNIEAAMAVYGEVGVRVVYARVFFDRMDGRIQGYVDALKARSPQVELCSIMEETAVAKDRITALSDQYHGTAGGRISVWPAPAITPAVTVEGMRWAQAFARDRAVMWTLHMAESDHDERLHWMSPAEYMECYGLLDERLQVAHCVYFDRKDVRLLHRHNVKVASQVVSNAYLGSGVAPVPEMVERGMAVGIGTDDGNCNDSVNMIGDMKFMAHIHRAVHRDADVLTPEKILEMATIDGARSLGMDHEIGSIETGKRADLILLDLRHPQTTPHHHLAATIVFQAYGNEVDTVLIDGNVVMENRRLSFLPPERELAFLEEAQSRATAILQRANMVANPAWRSL
modifications: Pseudomonas
Take B6: the “Root injury [%]” value amounted to 10%.
